Measurements: patent publication US20240293316A1, “ENZYME-RESPONSIVE POLYMER PEPTIDE AMPHIPHILES FOR TARGETED DRUG DELIVERY TO TREAT LOCAL AND SYSTEMIC INFLAMMATION” (Ramot at Tel-Aviv University Ltd., priority 2021, published 2024)
Square brackets hold non-standard residues; d marks the D form. Ends that are not written are not given here. * marks the point of attachment. NorAHA = (N-hexanoic acid)-5-norbornene-exo-2,3-dicarboximide, O=C1[C@@H]2[C@H](C(=O)N1CCCCCC(=O)*)[C@H]1C=C[C@@H]2C1

Key:
thermolysin = thermolysin (Bacillus thermoproteolyticus, UniProt P00800); details: 1 μM thermolysin:100 μM polymer, 24 hours incubation at 37° C.
thermolysin, sequence (P00800 233-548, species assumed): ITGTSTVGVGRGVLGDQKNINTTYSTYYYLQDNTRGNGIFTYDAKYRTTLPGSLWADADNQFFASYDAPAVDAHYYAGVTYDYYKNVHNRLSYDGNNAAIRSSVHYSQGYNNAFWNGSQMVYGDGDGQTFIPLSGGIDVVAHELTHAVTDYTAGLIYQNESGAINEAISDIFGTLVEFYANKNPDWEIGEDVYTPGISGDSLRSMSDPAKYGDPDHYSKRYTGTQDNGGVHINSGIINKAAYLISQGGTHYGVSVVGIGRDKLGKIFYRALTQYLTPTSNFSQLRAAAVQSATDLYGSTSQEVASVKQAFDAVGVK
Procedure: Transmission electron microscopy (TEM): Nanoparticles were characterized using a Hitachi HD-2300 STEM. Grids were prepared using a 1% uranyl acetate solution.
The nanoparticle cleavage experiment was performed similarly as described in Materials and Methods section, using a ratio of 1 μM thermolysin:100 μM polymer for 24 hours incubation at 37° C.

[1] = system: diabetic rats following collagen membrane implantation; assay: Diabetic rats with implanted collagen membrane, fluorescence imaging of DEX-containing nanoparticles; format: in vivo, Female Sprague Dawley rats; details: for order of in-vivo fluorescence intensity: 7- and 14-days post injection
Procedure: (§1) “Diabetic induction” model [Zoabi et al. 2020, supra]: Type 1-like diabetes was induced through a single intraperitoneal injection of streptozotocin, and the induction of hyperglycemia is confirmed by a blood glucose level that is higher than 270 mg/dL at 7 days post injection;
(§2) “Collagen membrane implantation” under scalp of diabetic rats, wherein a para-sagital excisional wound, 10 mm in length, was created in the center of the skin of the calvaria, the periosteum was separated from the skull bone, and a collagen membrane was implanted beneath [Eliezer M, Nemcovsky C, Romanos G, Kozlovsky A, Tal H, Kolerman R, Weinreb M, Moses O. Opposing effects of diabetes and tetracycline on the degradation of collagen membranes in rats. J Periodontol. 2013 April; 84(4):529-34; Tal H, Weinreb M, Shely A, Nemcovsky C E, Moses O. Tetracycline impregnation affects degradation of porcine collagen matrix in healthy and diabetic rats. Clin Oral Investig. 2016 July; 20(6):1237-42; Moses O, Eliezer M, Nemcovsky C, Tal H, Weinreb M. Accelerated degradation of collagen membranes in diabetic rats is associated with increased infiltration of macrophages and blood vessels. Clin Oral Investig. 2016 September; 20(7):1589-96; Eliezer M, Sculean A, Miron R J, Nemcovsky C, Weinberg E, Weinreb M, Zoabi H, Bosshardt D D, Fujioka-Kobayashi M, Moses O. Hyaluronic acid slows down collagen membrane degradation in uncontrolled diabetic rats. J Periodontal Res. 2019 December; 54(6):644-652; and Zoabi H, Nemcovsky C E, Bender O, Moses O, Weinreb M. Accelerated degradation of collagen membranes in type 1 diabetic rats is associated with increased expression and production of several inflammatory molecules. J Periodontol. 2020 October; 91(10):1348-13561.
Type 1-like diabetes was induced as described in the Materials and Methods section, and the induction of hyperglycemia was confirmed by a blood glucose level higher than 270 mg/dL 7 days post injection (see, FIGS. 13A and 13B).
(§3) At day 8, the rats were randomly divided into five groups to receive one single dosage of: i) NPL, ii) NPD, iii) NPR, iv) free DEX, or v) no injection, through a subcutaneous injection posterior to the ear (n=12 for each treatment group and n=3 for the no injection control group). For each treated group, 260 μg of DEX (either free-form or conjugated to the polymer) was used to provide a […] dosage similar to the literature value. Thus, the PPA NPs injection contained 250 μM polymer with 50% (125 μM) Cy 5.5 labeling, for each 200 μL injection.

[2] = system: diabetic rats following collagen membrane implantation; assay: Diabetic rats with implanted collagen membrane, histology of residual collagen membrane (HRP-Avidin); format: in vivo, Female Sprague Dawley rats
Procedure: as §1, §2, §3
Two weeks following injection, the rats were sacrificed with carbon dioxide overdose, and the skull together with the over lining periosteum and the membrane were harvested.
The harvested skull together with the over lining periosteum and the membrane were subjected to the following processing: tissues from 10 rats per group were fixed with paraformaldehyde, and processed for decalcified tissue histology, embedded in paraffin. […]

MMP-9 = MMP-9 (Homo sapiens, UniProt P14780); assay: MMP-9 cleavage assay of norbornene peptide monomers (HPLC); format: biochemical; details: 0.5 μM MMP-9: 500 μM NorMMP, 24 hours of incubation at 37° C.
MMP-9, sequence (P14780 94-707): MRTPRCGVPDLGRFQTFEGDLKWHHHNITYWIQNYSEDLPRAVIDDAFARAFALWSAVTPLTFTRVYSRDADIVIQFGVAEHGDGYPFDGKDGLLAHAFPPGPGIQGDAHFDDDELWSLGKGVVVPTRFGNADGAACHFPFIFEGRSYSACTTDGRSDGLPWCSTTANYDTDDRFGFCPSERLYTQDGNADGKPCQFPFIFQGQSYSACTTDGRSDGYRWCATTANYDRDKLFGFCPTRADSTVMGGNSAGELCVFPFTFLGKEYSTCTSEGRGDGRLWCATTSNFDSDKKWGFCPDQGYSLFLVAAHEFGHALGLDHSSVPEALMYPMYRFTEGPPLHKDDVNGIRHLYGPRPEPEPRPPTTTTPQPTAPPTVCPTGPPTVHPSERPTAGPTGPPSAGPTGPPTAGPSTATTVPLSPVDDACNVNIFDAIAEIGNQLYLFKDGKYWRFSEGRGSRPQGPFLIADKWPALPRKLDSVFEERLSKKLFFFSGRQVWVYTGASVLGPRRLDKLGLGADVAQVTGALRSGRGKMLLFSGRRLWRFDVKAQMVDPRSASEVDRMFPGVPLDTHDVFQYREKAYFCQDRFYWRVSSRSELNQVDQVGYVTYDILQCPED
Procedure: Stock solution of NorMMP peptide (510 μM) was prepared in DPBS buffer. To an Eppendorf tube, 1.5 μL MMP-9 stock (38.46 μM) and […] of NorMMP stock was added, giving a final concentration of 0.5 μM MMP-9: 500 μM NorMMP. The solution was incubated at 37° C. for 24 hours to promote peptide cleavage. To prepare the HPLC sample, 50 μL of the reaction mixture was added to 150 μL of DPBS buffer. 40 μL of resulting solution was injected into HPLC for analysis. For NorMMPL, NorMMPD and the cleavable sequence ([…]), a gradient of 20-60% Buffer B over 30 minutes was used. For the NorMMPR, a gradient of 20-40% Buffer B in 30 minutes was used.
Three test groups, including the norbornenes functionalized with random peptide (NorMMPR), D- and L-MMP peptide (NorMMPD and NorMMPL), and one control group with the cleaved peptide sequence […] were setup.

[3] = Properties of the designed random peptide (water solubility, net charge); format: physicochemical
Procedure: A new random peptide sequence was designed by replacing the MMP recognizable amino acid sequence PLGLAG (SEQ ID NO: 16) into GSGSGS (SEQ ID NO: 20).
Following the preparation of peptide functionalized norbornene monomers, an MMP-9 cleavage assay was performed setup, as described in the Materials and Methods section hereinabove.

[4] = single dose, 260 μg of DEX, two weeks following injection

Row | Substance | nanoparticle morphology upon thermolysin treatment (TEM) (thermolysin) | order of in-vivo fluorescence intensity [1] | cleavage by MMP-9 (HPLC traces) (MMP-9) | also measured
1 | NPD: micellar nanoparticles formed of DEX-containing D-MMP-containing PPA (PPAD) (NorAHA-G[dP][dL]G[dL][dA]GGERDG-NH2; not fully specified; also: grafted via NorAHA into ROMP polynorbornene block copolymer, micellar nanoparticle) | maintained their nanoparticle morphology | NPL>NPD>NPR |  | 
2 | NPL: micellar nanoparticles formed of DEX-containing L-MMP-containing PPA (PPAL) (NorAHA-GPLGLAGGERDG-NH2; not fully specified; also: micellar nanoparticle of NorDEX20-b-NorMMP5 polynorbornene block copolymer with DEX ester) | cleavage induced aggregation | NPL>NPD>NPR |  | in-vivo fluorescence intensity compared to NPD and NPR controls ([1]; 7- and 14-days post injection (day 14 and day 21)): significantly higher; collagen membrane area, higher than the free dexamethasone group [2, 4]: about 20%; collagen membrane area, higher than the no treatment group [2, 4]: about 40%; remaining collagen membrane area compared to free-form dexamethasone-treated group [2, 4]: significantly larger; voids in the residual collagen membranes compared to free-form dexamethasone and no injection groups ([2]; staining and histology analysis): significantly less voids
3 | NorMMPL: norbornene monomer functionalized with L-MMP peptide (SEQ ID NO: 1), MMP-cleavable (NorAHA-GPLGLAGGERDG-NH2; SMILES CC(C)C[C@H](NC(=O)CNC(=O)[C@H](CC(C)C)NC(=O)[C@@H]1CCCN1C(=O)CNC(=O)CCCCCN1C(=O)[C@@H]2[C@H](C1=O)[C@H]1C=C[C@@H]2C1)C(=O)N[C@@H](C)C(=O)NCC(=O)NCC(=O)N[C@@H](CCC(=O)O)C(=O)N[C@@H](CCCNC(=N)N)C(=O)N[C@@H](CC(=O)O)C(=O)NCC(N)=O) |  |  | completely cleaved | 
4 | NPR: micellar nanoparticles formed of DEX-containing random-peptide PPA (PPAR) (GGSGSGSGWGERDGS) | maintained their nanoparticle morphology | NPL>NPD>NPR |  | 
5 | GGSGSGSGWGERDGS-NH2 (C-terminus assumed) [random peptide] |  |  |  | water solubility [3]: good water solubility
6 | NorMMPR: norbornene monomer with R-MMP random peptide (SEQ ID NO: 17) (NorAHA-GGSGSGSGWGERDGS-NH2; not fully specified) |  |  | remained intact | 
7 | NorMMPD: norbornene monomer with D-MMP peptide (SEQ ID NO: 2), D-amino acids in the PLGLAG portion (NorAHA-G[dP][dL]G[dL][dA]GGERDG-NH2; not fully specified) |  |  | remained intact | 
8 | MMP peptide: peptide comprising PLGLAG sequence with all L-amino acids (SEQ ID NO: 1), MMP-cleavable (GPLGLAGGERDG-NH2) |  |  |  | net charge ([3]; pH=7): −1
